# Assay results as given in US20190309085A1.
# pKd: −log10 of the molar value.
# Target: CD16aV (human) (UniProt P08637)
# Test: BLI (Octet), His-captured hCD16aV, 1:1 model
# Sequence of CD16aV (human) (P08637 17-208 F176V limits assumed): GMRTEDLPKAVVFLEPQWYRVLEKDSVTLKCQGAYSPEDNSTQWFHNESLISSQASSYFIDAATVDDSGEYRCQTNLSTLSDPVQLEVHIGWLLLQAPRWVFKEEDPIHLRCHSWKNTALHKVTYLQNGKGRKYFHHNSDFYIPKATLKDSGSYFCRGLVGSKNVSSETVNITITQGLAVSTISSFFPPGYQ
substance,measurement,value
Fc-WT (antibody),pKd,6.24
